Data as given in PMC3048740.

How the values were obtained:
YFP-Stim1 (human) = YFP-Stim1 (human) (UniProt Q13586); assay: FRET or BRET
CFP-Stim1 (human) = CFP-Stim1 (human) (UniProt Q13586); assay: FRET or BRET

| FRET reduction against WT-Orai3 with Stim1 (YFP-Stim1 (human)) [%] | FRET reduction against WT-Orai3 with Stim1 (CFP-Stim1 (human)) [%] | Substance |
| --- | --- | --- |
| 20 |  | CFP-Orai3-L292S (from UniProt Q9BRQ5 1-295) (natural protein) |
|  | 35 | YFP-Orai3-L285S (from UniProt Q9BRQ5 1-295) (natural protein) |
